Fold stronger binding than S1 and S6 peptides data for one substance are collected here from patent US7094597.

In the experiment the target is purified HLA MHC Class II molecules (human). The experiment is described as follows: ELISA, biotinylated peptides on immobilized purified HLA class II molecules (FIG. 5).

In the case of dnaJp1 peptide (…), the fold stronger binding than S1 and S6 peptides was > 100 fold.
